Reference: the nanobody polyreactivity screen of Harvey et al. (2022)

Assay: yeast display, Sf9 membrane polyspecificity reagent, FACS + sequencing; frameworks hold sequencing errors
Summary of the method: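 Nanobodies came from a synthetic yeast display library in Saccharomyces cerevisiae BJ5465, induced with galactose for 36–48 hours and stained for 1 hour at 4 °C with 10% biotinylated, detergent-solubilized Sf9 membrane reagent. Cells were enriched on streptavidin microbeads and then FACS-sorted, with low and high (top ~1%) gates set on anti-HA fluorescence for expression and streptavidin fluorescence for reagent binding. Each polyreactivity label reflects the gate a clone came from. Genes were amplified by colony PCR, sequenced by MiSeq 2 × 250 and filtered by CDR length.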

Row | Sequence | polyreactivity (PSR sort gate)
1 | QVQLVESGGGLVQAGGSLRLSCAASGITFNYYAMGWYRQAPGKERELVATINRSGGTTYYADSVKGRITISRDNAKNTVYLQMNSLKPEDTAVYYCNARYTSRGRYHSGYDYWGQGTQVTVSS | high polyreactivity
2 | QVQLVESGGGLVQAGGSLRLSCAASGITFPANARGWYRPAPGKERELVAAISSSGDSTYYADSVKGRFTISRDNAKNTVYFQMNILKPEDTAVYYCAAKDYVWGQGTQVTVSS | low polyreactivity
3 | QVQLVESGGGLVQAGGSLRLSCAASGITFPAYAMGWYRQAPGKERELVAAISRRGGSTYYADSVKGRFTISRDYAKNTVYLQMNSLKPEDTAVYYCNADIKQRSDRYDYWGQGTQVTVSS | high polyreactivity
4 | QVQLVESGGGLVQAGGSLRLSCAASGITFPDYAMGWYRQAPGKERELVATISSSGGNTYYADSVKGRFTISRDNAKNTVYLQMNSLKPEDTAVYYCATVSYYWGYDYWGQGTQVTVSS | low polyreactivity
5 | QVQLVESGGGLVQAGGSLRLSCAASGITFPDYDMGWYRQAPGKERELVAAITYRSGSTYYADSVKGRFTISRDNAKNTVYLQMNSLKPEDTAVYYCNKYGQVPGYFSLDYWGQGTQVTVSS | high polyreactivity
6 | QVQLVESGGGLVQAGGSLRLSCAASGITFPGNAMGWYRQAPGKERELVAGISDGDSTNYADSVKARFTISRDNAKNTVYLQMNSLKPEDTAVYYCARDTELYVRWLDYWGQGTQVTVSS | low polyreactivity
7 | QVQLVESGGGLVQAGGSLRLSCAASGITFPGNAMGWYRQAPGKERELVAVISSGTSTNYADSVKGRFTISRDNAKYTVYLQMNSLKPEDTAVYYCATSLYYYPYYYWGQGTQVTVSS | low polyreactivity
8 | QVQLVESGGGLVQAGGSLRLSCAASGITFPGYAMGWYRQAPGKEWELVAAISTSGGSTYYADSVKGRFTISRDNAKNTVYLQMNSLKPEATAVYYCNARLVSYSYEEMDYWGQGTQVTVSS | low polyreactivity
9 | QVQLVESGGGLVQAGGSLRLSCAASGITFPGYARGWYRQAPGKASELVAAIDWSGDGTYYADSVKGRFTISRDNAKNTVYLQMNSLKPEDTAVYYCAKDNYPNHCTVRAVIYDYWGQGTQVTVSS | low polyreactivity
10 | QVQLVESGGGLVQAGGSLRLSCAASGITFPRYAMGWYRQAPGKERELVARITSGGRTNYADSVKGRFTISRDNAKNTVYLQMYSLKPEDTAVYYCNAVGWVRSQVRLGYWGQGTQVTVSS | high polyreactivity
11 | QVQLVESGGGLVQAGGSLRLSCAASGITFPRYVMGWYRQAPGKEREFVAAINYSGGRTYYADSVKGRFTISRDNAKNTVYLQMKSLKPEDTAVYYCAVDLHVWPFWFDYWGQGTQVTVSS | high polyreactivity
12 | QVQLVESGGGLVQAGGSLRLSCAASGITFPSYTMGWYRQAPGKERELVATIRNGGSTYYADSVKGRFTISRDNAKNTVYLHMNSLKPEDTAVYYCAAVPLWDYKVFYYLLYDYWGQGTQVTVSS | low polyreactivity
13 | QVQLVESGGGLVQAGGSLRLSCAASGITFPSYTMGWYRQAPGKERELVATIRNGGSTYYADSVKGRFTISRDNAKNTVYLQMNSLKPEDPAVYYCAAVPLWDYKFFYYLLYDYWGQGTQVTVSS | low polyreactivity
14 | QVQLVESGGGLVQAGGSLRLSCAASGITFPSYVMGWYRQAPGKEREFVAAITGSAGSTYYADSVKGRFTISRDNAKNTVYLQMNSLKPADTAVYYCAARVRYVNPKYYYWGQGTQVTVSS | high polyreactivity
15 | QVQLVESGGGLVQAGGSLRLSCAASGITFQHYSMGWYRQAPGKERELVAAISSSGGRTYYADSVKGRFTISRDNAKNTVYLQMNSLKPEDTAVYYCNGVDRYNRFDSWGQGTQVTVSS | high polyreactivity
16 | QVQLVESGGGLVQAGGSLRLSCAASGITFQKNAMGWYSQAPGKERELVAGITWRGSTYYADSVKGRFTISRDNAKNTVYLQRNSLKPEDTAVYYCAADPFSWYRSVRGEYWGQGTQVTVSS | low polyreactivity

Row | Sequence | polyreactivity (PSR sort gate)
17 | QVQLVESGGGLVQAGGSLRLSCAASGITFQRYAMGWYRQAPGKERELVAAISTNGGTTYYADSVKGRFTISRDTAKNTVYLQMNSLKPEDTAVYYCNAESGYVYYIRYNYWGQGTQVTVSS | high polyreactivity
18 | QVQLVESGGGLVQAGGSLRLSCAASGITFQSNDMGWYRQAPGKERELVAAISWSDDTTYYADSVKGRFTISRDNAKNTVYLQMNSLKPEDTAVYYCAAVYDSKSYYYWGQGTQVTVSS | high polyreactivity
19 | QVQLVESGGGLVQAGGSLRLSCAASGITFQYYAMGWYRQAPGKERELVAAITSSGVSTYYADSVKGRFTISRDNAKNTVYLQMNSLKPEDTAVYYCNTVVRGWSSSAYDYWGQGTQVTVSS | low polyreactivity
20 | QVQLVESGGGLVQAGGSLRLSCAASGITFQYYTMGWYRQAPGKERELVAAISWSTSSTYYADSVKGRFTISRDNAKNTVYLQMNSLKPEDTAVYYCAARYTTRRYYYWGQGTQVTVSS | high polyreactivity
21 | QVQLVESGGGLVQAGGSLRLSCAASGITFRDNGMGWYRQAPGKESELVAAITSGGSTYYADSVKGRFTISRDNAKNTVYLQMNSLKPEDTAVYYCAAKRIKRRGWRQLSWYDSWGQGTQVTVSS | high polyreactivity
22 | QVQLVESGGGLVQAGGSLRLSCAASGITFRFYAMGWYRQAPGKERELVAVISRGGGTTYYADSVKGRFTISRDNAKNTVYLHMNSLKPEDTAVYYCNAVIAWYRSDEYDYWGQGTQVTVSS | high polyreactivity
23 | QVQLVESGGGLVQAGGSLRLSCAASGITFRGYAMGWYRQAPGKERELVATISYRGGNTYYADSVKGRFTISRDNAKNTVYLQMNSLKPEDTAVYYCARKYFRTSNLYGYWGQGTQVTVSS | high polyreactivity
24 | QVQLVESGGGLVQAGGSLRLSCAASGITFRKYAMGWYRQAPGKERELVAGIRYSGSSTYYADSVKGRFTISRDNAKNTVYLQMNSLKPEDTAVYYCAVYGTTRYATTYDYWGQGTQVTVSS | high polyreactivity
25 | QVQLVESGGGLVQAGGSLRLSCAASGITFRQYAMGWYRQAPGKERELVAVITSRGGTTYYADSVKGRFTISRDNAKNTVYLQMNSLKPEDTAVYYCAKVYGFPYYRAYFPERRNGYWGQGTQVTVSS | high polyreactivity
26 | QVQLVESGGGLVQAGGSLRLSCAASGITFRRNAMGWSRQAHGQVRELVAAITRSGGSTYYADSVKGRFTISRDNAKNTVYLQMNSLKPEDTADYYCAADNTNDEDTGYYWGQGTQVTVSS | high polyreactivity
27 | QVQLVESGGGLVQAGGSLRLSCAASGITFRRNAMGWYRQAPGKERELVAAISLSGTRTYYADSVKGRFTISRDNAKNTVYLQMNSLKPEDTAVYYCAASYYNKFDYWGQGTQVTVSS | high polyreactivity
28 | QVQLVESGGGLVQAGGSLRLSCAASGITFRRNAMGWYRQAPGKERELVAAITSRGGSTYYADSVKGRFTISRDNAKNTVYLQMNSMKPEDTAVYYCNAGGVDRVDRDYWGQGTQVTVSS | high polyreactivity
29 | QVQLVESGGGLVQAGGSLRLSCAASGITFRRYGMGWYRQAPGKERELVATITSSVGSRTYYADSVKGRFTISRDNAKNTVYLQMNSLKPEDTAVYYCAADHRVYDYEYWGQGTQVTVSS | low polyreactivity
30 | QVQLVESGGGLVQAGGSLRLSCAASGITFRSYAMGWYRQAPGKERELVATISWSGGITYYADSVKGRFTISRDNAKNTVYLQMNSLKPEDTAFYYCAKASQSWGRVDYYYWGLGTQVTVSS | low polyreactivity
31 | QVQLVESGGGLVQAGGSLRLSCAASGITFRSYDMGWYRQAPGTERELVAAISSTGRTYYADSVKGRFTISRDNAKNTVYLQMNSLKPEDTAVYYCARARSHYAYYWWNAGTGLDYWGQGTQVTVSS | high polyreactivity
32 | QVQLVESGGGLVQAGGSLRLSCAASGITFRSYVMGWYRQAPGKEMEFVAVITKSGGSTYYADSVKGRFTISRDNAMNTVYLQMNSLKPEDTAVYYCGAEYARSSRYKISSEMYYWGQGTQVTVSS | high polyreactivity
